Variants at the floor of the assay were thinned out.
B1: TPR 5TU (parent)
chain: GGAUCUUCUCGAUCUAACAAAAAAGACAAAUCUGCCACAAAGCUUGAGAGCAUCUUCGGAUGCAGAGGCGGCAGCCUUCGGUGGCGCGAUAGCGCCAACGUUCUCAACUAUGACACGCAAAACGCGUGCUCCGUUGAAUGGAGUUUAUCAUG

Variants of: B1
Test: polymerase ribozyme fitness, log enrichment relative to wild type (log ratio); higher = more active; in vitro selection for triplet polymerase activity
Method in brief: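 For each subunit of a heterodimeric triplet polymerase ribozyme, a mutant library was built by PCR and transcribed, then taken through a single in vitro selection round in triplicate. Selection involved annealing to a biotinylated primer, the partner subunit and triplets, incubation frozen at −7 °C, gel excision of extended constructs, capture on streptavidin beads and RT-PCR. Genotypes were retained after Illumina sequencing of inputs and outputs only with ≥10 input reads and ≥1 read in each output. Fitness is defined as the logarithm of a genotype's enrichment relative to wild-type enrichment, using inverse-variance-weighted averages across replicates, with the logarithm taken to base 2.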

Row | Variant | polymerase ribozyme fitness (log ratio)
1 | GGAUCUUCUCGAUCUAACAAAAAAGACAAAUCUGCCACAAAGCUUGAGCGCAUCUUCGGAUGCAGAGGCGGCAGCCUUCGGUGGCGCGUUAGCGCCAACGUUCUCAACUAUGACACGCAAAACGCGUGCUCCGUUGAUUGGAGUUUAUCAUG [A49C A89U A138U] | ≤ -4.2
2 | GGAUCUUCUCGAUCUAACAAAAAAGACAAAUCUGCCACAAAGCUUGAGCGCAUUUUCGGAUGCAGAGGCGGCAGCCUUCGGUGGCCCCAUAGCGCCAACGUUCUCAACUAUGACACGCAAAACGCGUGCUCCGUUGAUUGGAGUUUAUCAUG [A49C C54U G86C G88C A138U] | ≤ -4.2
3 | GGAUCUUCUCGAUCUAACAAAAAAGACAAAUCUGCCACAAAGCUUGAGCGCGUCUUCGGAUGCAGAGGCGGCAGCCUUCGGUAGCGCGAUAGCGCCAACGUGCUCAACUAUGACACGCAAAACGCGUGCUCCGGUGAAUGGAGUUUAUCAUG [A49C A52G G83A U102G U134G] | -3.78
4 | GGAUCUUCUCGAUCUAACAAAAAAGACAAAUCUGCCACAAAGCUUGAGCGCCUCUUCGGAUGCAGAGGCGGCAGCCUUCGGUGGCGCGAUAGCGCAAACGUGCUCAACUAUGACACGCAAAACGCGCGCUCCGUUGAAUGGAGUUUAACAUG [A49C A52C C96A U102G U127C U148A] | ≤ -4.2
5 | GGAUCUUCUCGAUCUAACAAAAAAGACAAAUCUGCCACAAAGCUUGAGCGCCUAUUCGGAUGCAGAGGCGGCAUCGUUCGGUGGCGCGAUAGCGCCAACGUUCUCAACUAUGACACGCAAAACGUGUGCUCCGUUGAAUGGAGUUUAUCAUG [A49C A52C C54A G74U C76G C125U] | ≤ -4.2
6 | GGAUCUUCUCGAUCUAACAAAAAAGACAAAUCUGCCACAAAGCUUGAGCGUAUCUUCGGAUGCAGAGGCGGCGGCCUUCGGUGGCGCGAUAGCGCCAACGUUCUCAACUAUGACACGCAAAACGCGUGCUCCGUUGAAUGGAGUUUAUCAUG [A49C C51U A73G] | ≤ -4.2
7 | GGAUCUUCUCGAUCUAACAAAAAAGACAAAUCUGCCACAAAGCUUGAGCGCAUCUUUGGAUGCAGAGGCGGCAGCCUUCGGUGGCGCGAUAGCGCCAACGUUCUCAACUAUGACACGCAAAACGCGUGCUCCGUUGAAUGGAGUUUAUCAUG [A49C C57U] | -3.72
8 | GGAUCUUCUCGAUCUAACAAAAAAGACAAAUCUGCCACAAAGCUUGAGCGCCUCUCCGGAUGCAGAGGCGGCAGCCUUCGGUGGCGGGAUAGCGUCAGCGUUCUCACCUAUGACACGCGAAACGCGUGCUCCGUUGAAUGGAGUUUAUCAUG [A49C A52C U56C C87G C95U A98G A107C A119G] | -4.17
9 | GGAUCUUCUCGAUCUAACAAAAAAGACAAAUCUGCCACAAAGCUUGAGCGCCUCUUCGGAUGCAGGGGCGGCAGCCUUCGGUGGCCCGAUAGCGCCAACGUUCUCAACUAUGACACGCGAAACGCGUGCUCCGUUGAAUGGAGUUUAUCAUG [A49C A52C A66G G86C A119G] | ≤ -4.2
10 | GGAUCUUCUCGAUCUAACAAAAAAGACAAAUCUGCCACAAAGCUUGAGCGCGUCUUCGGAUGCAGAGGCGGCAGCCUUCGGUGGUGCGAUAGCGCCAACGGUCUCAACUAUGACACGCAAAACGCGGGCUCCGUUGAAUGGAGGUUAUCAUG [A49C A52G C85U U101G U127G U144G] | ≤ -4.2
11 | GGAUCUUCUCGAUCUAACAAAAAAGACAAAUCUGCCACAAAGCUUGAGCGCAUCUUCGGAUGCAGAGGCGGCAGACUUCGCUGGCGCGAUAGGGCCAACGUUCUCCACAAUGACACGCAAAACGCGUGCUCCGUUAAAUGGAGUUUAUCAUG [A49C C75A G81C C93G A106C U109A G136A] | ≤ -4.2
12 | GGAUCUUCUCGAUCUAACAAAAAAGACAAAUCUGCCACAAAGCUUGAGCGAAUCUUCGGAUGCAGAGGCGGCAGCCUUCGGUGGCGCGAUAGCGCCAAUGUUCUCAACUAUGACACGCAAAACGCGUGCUCGGUUGAAUGGAGUUUAUCAUG [A49C C51A C99U C132G] | ≤ -4.2
13 | GGAUCUUCUCGAUCUAACAAAAAAGACAAAUCUGCCACAAAGCUUGAGCGCAUCUUCGGAUGCAGAGGCGGCAGCCUUCGGUGGCGCGAUAGCGCCAACGUUCUCAACUAUGACACGCAAAACGCGUGCUCCGUUGAAUGGAGUUUAUCAUG [A49C] | -4.19
14 | GGAUCUUCUCGAUCUAACAAAAAAGACAAAUCUGCCACAAAGCUUGAGCGGAUCUUCGGAUGCAGAGGCGGCAGCCUUCGGUGGCGCGAUAGCGCCAACGUUCUCAACUAUGACACGCAAAACGCGUGCUCCGUUGAAUGGAGUUUAUCAUG [A49C C51G] | -4.14
15 | GGAUCUUCUCGAUCUAACAAAAAAGACAAAUCUGCCACAAAGCUUGAGCGCAUUAUCGGAUGCAGAGGCGGCAGCCUUCGGUGGCGCGAUUGCGCCAACGUUCUCAAUUAUGACACGCAAAACGCGUGCUCCGUUGAAUGGAGUUUAUCAUA [A49C C54U U55A A91U C108U G152A] | ≤ -4.2
16 | GGAUCUUCUCGAUCUAACAAAAAAGACAAAUCUGCCACAAAGCUUGAGCGCAUCUUCGGAUGCAGAGGCGGCAGCCUUCGGUGGCGCGAUAGCGCCAACGUUCUCGACUAUGACACGCAAAACGCGUGCUCCGUUGAAUGGAGUUUAUCAUG [A49C A106G] | -4.12
17 | GGAUCUUCUCGAUCUAACAAAAAAGACAAAUCUGCCACAAAGCUUGAGCGCAUCUUCGGAUGCAGAGGGGGCAGCCUUCGGUGGAGCGAUAGCGCCAACGUUCUCAACUAUGACACGCACAACGUGUGCUCCGUUGAAUGGAGUUUAUCAUG [A49C C69G C85A A120C C125U] | ≤ -4.2
18 | GGAUCUUCUCGAUCUAACAAAAAAGACAAAUCUGCCACAAAGCUUGAGCGUAUCUUCGGAUGCAGAGGCGGCAGCCUUCGGUGGCGCGAUAGCGCCAACGUUCUCAACUAUGACACGCAAAACGCGUGCUCCAUUGAAUGGAUUUUAUCAUG [A49C C51U G133A G143U] | ≤ -4.2
19 | GGAUCUUCUCGAUCUAACAAAAAAGACAAAUCUGCCACAAAGCUUGAGCGCAUCUUCGGAUGCAGAGGCGGCAGUAGUCGUUGGCGUGAUAGUACCAACGUUCUCAACUAUGACACGCAAAACGCGUGCUGCGGUGAAUGGAGUUUAUCAUG [A49C C75U C76A U77G G81U C87U C93U G94A C131G U134G] | ≤ -4.2
